This data set concerns the molecule itself. Nature of the data set: crystal structure; sitting drop vapor diffusion at room temperature, 3.5 mg/ml protein with 1 mM GSH; 1.8-2.2 M NH4SO4, 0.2 M NaCl, 0.1 M sodium cacodylate pH 6.1-6.8; analog I soaked, analogs II and III co-crystallised; space group F23.

B1: Leukotriene C4 synthase (human, wild type) (enzyme)
chain: MKDEVALLAAVTLLGVLLQAYFSLQVISARRAFRVSPPLTTGPPEFERVYRAQVNCSEYFPLFLATLWVAGIFFHEGAAALCGLVYLFARLRYFQGYARSAQLRLAPLYASARALWLLVALAALGLLAHFLPAALRAALLGRLRTLLPWA
notes: Leukotriene C4 synthase, human, wild type; integral membrane protein in dodecyl maltoside; Expression and purification 'essentially as described (15)'; The trimer arises by crystal symmetry (space group F23); also called LTC4S; LTC4 synthase
Regarding B1, the “stoichiometry N” value came to 3.

The stoichiometry N is a count of units in the complex or per binding partner.

(Values after publication PMC3931076, “Crystal Structures of Leukotriene C4 Synthase in Complex with Product Analogs” (The Journal of Biological Chemistry, 2013).)
